Measurements as given in patent US20040043401A1.

Target: human prostate-specific membrane antigen (PSMA) (human) (UniProt Q04609)
Assay: cell-based or functional assay
Settings: for IL-2 content normalized for gene transfer efficiency, transduced PBLs on NIH3T3 feeder expressing PSMA + B7.1: scale: pg/ml divided by percentage transduced cells

Chain of human prostate-specific membrane antigen (PSMA) (human) (Q04609 whole entry): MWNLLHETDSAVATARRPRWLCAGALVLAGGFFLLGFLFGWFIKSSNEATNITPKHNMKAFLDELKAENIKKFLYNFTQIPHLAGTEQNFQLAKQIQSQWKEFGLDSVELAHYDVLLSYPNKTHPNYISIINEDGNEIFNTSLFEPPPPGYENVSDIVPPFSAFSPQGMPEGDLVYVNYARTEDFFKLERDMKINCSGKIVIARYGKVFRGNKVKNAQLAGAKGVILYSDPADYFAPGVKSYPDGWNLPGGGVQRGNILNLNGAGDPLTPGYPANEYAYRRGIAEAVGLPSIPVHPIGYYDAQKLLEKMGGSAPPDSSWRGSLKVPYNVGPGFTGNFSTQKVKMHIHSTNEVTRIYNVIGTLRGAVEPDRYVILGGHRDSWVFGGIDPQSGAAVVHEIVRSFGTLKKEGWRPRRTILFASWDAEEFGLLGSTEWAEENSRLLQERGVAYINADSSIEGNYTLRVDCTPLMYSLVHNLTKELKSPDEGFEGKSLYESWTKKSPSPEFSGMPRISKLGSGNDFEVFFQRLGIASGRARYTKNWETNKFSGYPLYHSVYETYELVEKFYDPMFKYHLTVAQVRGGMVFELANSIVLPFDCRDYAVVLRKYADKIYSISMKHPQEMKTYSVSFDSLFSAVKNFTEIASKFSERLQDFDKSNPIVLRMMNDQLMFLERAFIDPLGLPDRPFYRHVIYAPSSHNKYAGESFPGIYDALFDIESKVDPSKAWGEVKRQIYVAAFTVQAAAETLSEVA
Chain of P28 fusion receptor (J591 scFv fused to human CD28) (P10747 114-220): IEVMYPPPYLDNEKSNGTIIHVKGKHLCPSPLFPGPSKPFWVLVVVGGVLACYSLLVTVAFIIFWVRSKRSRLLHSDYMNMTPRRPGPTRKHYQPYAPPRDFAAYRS

| IL-2 concentration in supernatant (ELISA, 24 h), transduced PBLs on NIH3T3 feeder expressing PSMA [pg/mL] | IL-2 concentration in supernatant (ELISA, 24 h), transduced PBLs on NIH3T3 feeder expressing PSMA + B7.1 [pg/mL] | IL-2 content normalized for gene transfer efficiency, transduced PBLs on NIH3T3 feeder expressing PSMA + B7.1 | Substance |
| --- | --- | --- | --- |
| < 50 | < 50 |  | P28 fusion receptor (J591 scFv fused to human CD28) (from UniProt P10747 114-220) |
| < 50 | 29700 | 958 | Pz28 fusion receptor (Pz1 with the 41 amino acid intracellular domain of human CD28 at its C-terminus) (from UniProt P01732 137-209) |
| < 50 | 164000 | 3280 | Pz1 fusion receptor (J591 scFv - human CD8 alpha hinge and transmembrane - intracellular domain of human TCR zeta) (from UniProt P01732 137-209) |
